The chains are these.
T1: recombinant human periostin (human, UniProt Q15063 22-836)
T1 sequence: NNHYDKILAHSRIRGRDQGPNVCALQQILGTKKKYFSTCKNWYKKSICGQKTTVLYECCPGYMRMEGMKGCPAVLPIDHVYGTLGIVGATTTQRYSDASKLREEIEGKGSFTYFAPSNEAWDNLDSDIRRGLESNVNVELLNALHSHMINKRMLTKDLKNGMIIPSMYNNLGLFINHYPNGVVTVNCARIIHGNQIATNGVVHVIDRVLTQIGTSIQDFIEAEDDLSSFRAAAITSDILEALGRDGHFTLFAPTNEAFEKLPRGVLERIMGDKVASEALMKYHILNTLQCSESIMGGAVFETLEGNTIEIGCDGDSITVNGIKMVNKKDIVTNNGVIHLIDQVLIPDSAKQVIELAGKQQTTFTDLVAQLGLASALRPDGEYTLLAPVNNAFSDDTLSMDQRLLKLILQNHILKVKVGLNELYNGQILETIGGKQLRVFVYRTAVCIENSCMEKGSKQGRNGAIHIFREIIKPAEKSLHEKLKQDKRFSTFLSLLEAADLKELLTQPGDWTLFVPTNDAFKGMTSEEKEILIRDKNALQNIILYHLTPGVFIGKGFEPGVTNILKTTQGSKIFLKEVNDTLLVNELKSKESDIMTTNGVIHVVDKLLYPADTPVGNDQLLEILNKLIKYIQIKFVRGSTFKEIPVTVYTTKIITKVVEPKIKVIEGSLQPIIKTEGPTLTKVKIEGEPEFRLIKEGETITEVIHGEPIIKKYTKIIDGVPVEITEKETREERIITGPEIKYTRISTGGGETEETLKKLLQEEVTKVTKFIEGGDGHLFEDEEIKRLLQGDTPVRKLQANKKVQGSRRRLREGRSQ

T2: recombinant mouse periostin (mouse, UniProt Q62009-2 24-811, limits assumed)
T2 sequence (looked up): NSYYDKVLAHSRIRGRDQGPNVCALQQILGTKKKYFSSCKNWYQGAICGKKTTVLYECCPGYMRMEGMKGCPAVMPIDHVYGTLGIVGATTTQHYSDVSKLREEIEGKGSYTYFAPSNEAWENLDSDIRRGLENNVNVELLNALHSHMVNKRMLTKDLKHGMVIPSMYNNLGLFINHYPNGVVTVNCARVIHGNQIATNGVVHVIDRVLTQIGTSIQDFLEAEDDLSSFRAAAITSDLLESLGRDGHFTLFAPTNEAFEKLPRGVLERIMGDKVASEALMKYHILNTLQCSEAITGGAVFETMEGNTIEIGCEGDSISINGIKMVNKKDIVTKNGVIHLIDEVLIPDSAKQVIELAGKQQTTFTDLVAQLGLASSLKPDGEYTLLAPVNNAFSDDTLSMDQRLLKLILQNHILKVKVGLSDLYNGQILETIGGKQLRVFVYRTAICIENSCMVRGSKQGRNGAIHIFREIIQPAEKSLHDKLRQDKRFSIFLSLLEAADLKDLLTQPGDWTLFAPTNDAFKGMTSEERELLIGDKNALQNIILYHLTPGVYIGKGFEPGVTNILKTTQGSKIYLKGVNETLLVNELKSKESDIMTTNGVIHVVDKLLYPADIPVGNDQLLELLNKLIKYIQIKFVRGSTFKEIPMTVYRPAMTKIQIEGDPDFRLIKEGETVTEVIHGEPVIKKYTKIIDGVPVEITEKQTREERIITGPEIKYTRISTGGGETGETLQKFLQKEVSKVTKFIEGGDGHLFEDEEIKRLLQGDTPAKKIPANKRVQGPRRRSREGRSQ

B1: NB1011 (N55T) (antibody, V domains shown)
VH: QVQLVQSGAEVKKPGASVKVSCKASGYTFTSYGISWVRQAPGQGLEWMGWISAYTGNTNYAQKLQGRVTMTTDTSTSTAYMELRSLRSDDTAVYYCARDMLVVPFDYWGQGTLVTVSS
VL: QSVLTQSSSASGTPGQTVTVSCSGSSSDIGSNRVNWYQQLPGTAPKLLIYSNDQRPSGVPDRFSGSKSGTSASLAISGLQSADEADYYCAAWDDSLSTYVFGSGTKVTVL
notes: Variant of NB0828 (IgG4PAA parent); the isotype of the variant is not restated
B2: NB1015 (N55D) (antibody, V domains shown)
VH: B1 VH with T55D
VL: B1 VL
notes: as for B1
B3: NB1003 (N55S) (antibody, V domains shown)
VH: B1 VH with T55S
VL: B1 VL
notes: as for B1
B4: NB1010 (N55Q) (antibody, V domains shown)
VH: B1 VH with T55Q
VL: B1 VL
notes: as for B1
B5: NB1014 (N55T_M100V) (antibody, V domains shown)
VH: B1 VH with M100V
VL: B1 VL
notes: Double mutant of NB0828 (IgG4PAA parent); the isotype of the variant is not restated
B6: NB1012 (N55S_M100I) (antibody, V domains shown)
VH: B1 VH with T55S, M100I
VL: B1 VL
notes: as for B5
B7: NB0627 (antibody, human IgG1, V domains shown)
VH: B1 VH with T55N
VL: B1 VL

Results on seven molecules are retold here after patent publication US20220010003A1 (Boehringer Ingelheim, published 2022).

Numbering of substitutions follows the chain as printed. In names and notes the source's numbering stands. Where only a bound is given, the exact number is not on record here.

The target in the first assay is T1, recombinant human periostin. Briefly: cell-based or functional assay.
Take B1: the “CAA IC50” value is 15 nM.
Still for that read-out and setting: for B2 the value was 13.6 nM; for B3, 10.8 nM; for B4, 7.97 nM.

Another assay deals with T2, recombinant mouse periostin. Put plainly: cell-based or functional assay.
For the molecule B5, the “CAA IC50” value was found to be 65.1 nM.
As to B1, the “CAA IC50” value worked out at 22.3 nM.
As for B6, the “CAA IC50” value was determined as 42.3 nM.
On the same count and under the same terms, the result for B2 reads 20.9 nM; that for B3, 14.9 nM.
As to B4, the “CAA IC50” value amounted to 19.6 nM.

In a further assay the target is T1, recombinant human periostin. Put plainly: cell-based or functional assay. The source holds these as a separate data set.
Consider B7, for which the “IC50 (nM), cell attachment assay” value is 22.4 nM.

For the next assay the target is unchanged. Put plainly: binding ELISA, periostin coated.
In general, EC50 refers to the concentration at which the effect is half-maximal. B5: the EC50 was found to be 9.47 nM.
In the case of B1, the EC50 came to 0.07 nM.
With B6, the EC50 is 2.28 nM.
Regarding B2, the EC50 amounted to 0.12 nM.
Take B3: the EC50 came to 0.08 nM.
On the same count and under the same terms, the result for B4 reads 0.08 nM.

The target in another assay is T2, recombinant mouse periostin. Briefly: binding ELISA, periostin coated.
Consider B5, for which the EC50 turned out to be 19.3 nM.
As to B1, the EC50 was 0.07 nM.
As to B6, the EC50 turned out to be 4.42 nM.
Same read-out and setting: the result for B2 reads 0.18 nM.
For B3, the EC50 turned out to be 0.08 nM.
With B4, the EC50 was 0.1 nM.

Another assay has as its target T1, recombinant human periostin. Briefly: ELISA, periostin coated, anti-human Fc-HRP; the clone is named in Table 2. A general note: An ELISA detects its analyte on a solid surface through an enzyme-linked reagent.
With B7, the EC50 is below 1 nM.

In the next assay the target is T2, recombinant mouse periostin. The description is as above.
Turning to B7, the EC50 is below 1 nM.
